Target: the molecule itself
Assay: yeast two-hybrid two-by-two matrix, LacZ and HIS3 reporters

B1: HCV core protein, full length (strain H) (other)
chain: MSTNPKPQRKTKRNTNRRPQDVKFPGGGQIVGGVYLLPRRGPRLGVRATRKTSERSQPRGRRQPIPKARRPEGRTWAQPGYPWPLYGNEGCGWAGWLLSPRGSRPSWGPTDPRRRSRNLGKVIDTLTCGFADLMGYIPLVGAPLGGAARALAHGVRVLEDGVNYATGNLPGCSFSIFLLALLSCLTVPASA
notes: mature; also called capsid protein; full-length capsid
- binding result: no binding
